Test results as given in publication PMC3382582, “The Estrogen-Related Receptor Alpha Upregulates Secretin Expressions in Response to Hypertonicity and Angiotensin II Stimulation”.

Molecular target: T1, ERRα (in vitro translated) (Mus musculus, UniProt O08580 1-422)
T1 sequence: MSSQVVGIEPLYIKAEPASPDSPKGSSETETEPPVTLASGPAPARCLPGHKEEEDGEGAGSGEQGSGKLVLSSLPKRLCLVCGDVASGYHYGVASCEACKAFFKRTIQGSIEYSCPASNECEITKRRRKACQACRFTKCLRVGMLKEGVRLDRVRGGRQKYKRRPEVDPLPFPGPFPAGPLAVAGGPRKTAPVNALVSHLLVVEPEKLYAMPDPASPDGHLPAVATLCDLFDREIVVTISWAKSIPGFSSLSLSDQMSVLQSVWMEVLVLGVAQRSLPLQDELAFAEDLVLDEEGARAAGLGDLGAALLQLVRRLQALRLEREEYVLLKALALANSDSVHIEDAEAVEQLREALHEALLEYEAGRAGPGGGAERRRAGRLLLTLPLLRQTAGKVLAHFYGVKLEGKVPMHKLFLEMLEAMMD
Assay: EMSA; 2.5 mM MgCl2, poly(dI:dC); EMSA: 10 mM Tris pH 7.5, 50 mM NaCl, 2.5 mM MgCl2, 0.5 mM DTT, 4% glycerol, 2 µg poly(dI:dC), 1 pmol probe, 20 µl, room temperature 15 min; 5% polyacrylamide gel
Conditions: protein: ivt; label: 32P 5' end label (T4 PNK); strands as printed are 17 and 16 nt; S6 lacks one G relative to the exact complement of S5 (possible misprint)

B1: GS-ERRα (SCT promoter ERE-half site oligo) (dsDNA)
DNA 1: GCCCCTGACCTTCCCGG
DNA 2: CCGGGAAGGTCAGGGC
binding result: binds
